# Results published in patent US20220089722A1 (NANTONG YICHEN BIOPHARMA, published 2022).
# How the values were obtained:
# [1] = target: MICA on PANC-1, BXPC-3 or K562 cells (UniProt Q29983 24-383, limits assumed); assay: cell-based or functional assay
# EGFR on F98-EGFR cells [2] = target: T1, EGFR on F98-EGFR cells (UniProt P00533 25-1210, limits assumed); assay: flow cytometry on F98-EGFR cells
# T1 construct: whole, on cells
# Procedure: F98-EGFR cells (a DMEM containing 10% FBS, 200 μg/ml G418) were cultured. 2×10⁵ cells were washed by precooled PBS for 3 times, and blocked by 2% FBS (soluble to PBS). IgFD-8, IgFD-9, IgFD-10, IgFD-11, IgFD-18, IgFD-19, IgFD-25, IgFD-26 or IgFD-31 (aEGFR expressed in a laboratory as a control) was added and incubated for 2 h at 4° C. (cells were gently mixed during incubation), unbounded antibodies were washed by 2% FBS (soluble to PBS), and then the remaining cells were incubated by FITC anti-human IgGFc(KPL, Inc., MD) for 1 h at 4° C., and washed by 2% FBS (soluble to PBS) for flow cytometry analysis. As shown in FIG. 7 and Table 4, the anti-CD3/anti-EGFR heterodimers in different forms of fusion could bind to EGFR on F98-EGFR cells, and there was no significant difference in the binding capacity of different heterodimers to F98-EGFR.
# [3] = target: T2, CD3 on T cells (Jurkat T cells; PBMC-T cells); assay: flow cytometry on activated T cells from PBMCs (PBMC-T)
# T2 construct: whole, on cells; the target is inferred from the anti-CD3 arm of the constructs
# T2 sequence (P07766 23-207): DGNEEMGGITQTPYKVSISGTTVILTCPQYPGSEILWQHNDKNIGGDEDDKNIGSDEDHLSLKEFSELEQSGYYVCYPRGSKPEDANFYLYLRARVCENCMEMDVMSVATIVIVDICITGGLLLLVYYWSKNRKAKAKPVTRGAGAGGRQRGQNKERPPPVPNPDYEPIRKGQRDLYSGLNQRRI
# Procedure: Peripheral blood of healthy volunteers was collected, and Ficoll-Hypaque(GE Healthcare) was used to separate peripheral blood monouclear cells (PBMCs) via gradient centrifugation. The purified PBMCs were resuspended in RPMI 1640/10% FBS complete medium. PBMCs were incubated with immobilized anti-CD3 (Clone OKT3, eBiosciences), and 2 μg mL anti-CD28 (Clone CloneCD28.2, eBiosciences) at 37° C. for 48 h. The activated T cells were then expanded for 10d with 20 U/ml IL2(R&D Systems). 2×10⁵ cells were washed by precooled PBS for 3 times, and blocked by 2% FBS (in PBS), and then incubated with IgFD-8, IgFD-18 or IgFD-19 at different concentrations (25 nM, 7.5 nM, 2.5 nM, 0.75 nM or 0.25 nM) for 1 h at 4° C. (cells were gently mixed during incubation). Unbounded antibodies were washed by 2% FBS (in PBS), and the cells were incubated with FITC anti-human IgGFc (KPL, Inc., MD) for 1 h at 4° C. (cells were gently mixed during incubation). The cells were subjected for flow cytometry analysis after the unbounded antibodies were washed by 2% FBS (in PBS).
# EGFR on F98-EGFR cells [4] = target: T1, EGFR on F98-EGFR cells; assay: cell-based or functional assay
# Sequence of MICA on PANC-1, BXPC-3 or K562 cells (Q29983 24-383 limits assumed): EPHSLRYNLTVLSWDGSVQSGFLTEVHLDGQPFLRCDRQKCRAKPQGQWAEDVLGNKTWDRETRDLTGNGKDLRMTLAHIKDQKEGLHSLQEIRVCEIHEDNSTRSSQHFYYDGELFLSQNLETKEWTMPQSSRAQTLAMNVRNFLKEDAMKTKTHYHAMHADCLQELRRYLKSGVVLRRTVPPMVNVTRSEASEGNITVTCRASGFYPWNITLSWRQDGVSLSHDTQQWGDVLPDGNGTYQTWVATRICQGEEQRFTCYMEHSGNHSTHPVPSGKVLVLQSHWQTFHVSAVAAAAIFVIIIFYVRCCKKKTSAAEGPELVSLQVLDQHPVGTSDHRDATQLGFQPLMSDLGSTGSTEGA
Binder,"Promotion for the specific killing effect of PBMCs on target cells by heterodimers (EC50, pM); K562 cells, LDH assay [1] [pM]","Promotion for the specific killing effect of PBMCs on target cells by heterodimers (EC50, pM); PANC-1 cells, LDH assay [1] [pM]",Kd (EGFR on F98-EGFR cells [2]) [nM],Kd [3] [nM],"Promotion for the specific killing effect of PBMCs on target cells by heterodimers (EC50, pM); F98-EGFR cells, LDH assay (EGFR on F98-EGFR cells [4]) [pM]"
IgFD-37(anti-CD3/MICA) (Fc fusion) chain 1: EVQLVESGGGLVQPGGSLRLSCAASGFTFNTYAMNWVRQAPGKGLEWVARIRSKYNNYATYYADSVKDRFTISRDDSKNTLYLQMNSLRAEDTAVYYCVRHGNFGNSYVSWFAYWGQGTLVTVSSASTKGPSVFPLAPSSKSTSGGTAALGCLVKDYFPEPVTVSWNSGALTSGVHTFPAVLQSSGLYSLSSVVTVPSSSLGTQTYICNVNHKPSNTKVDKKVEPKSCDKTHTCPPCPAPPVAGPSVFLFPPKPKDTLMISRTPEVTCVVVDVSHEDPEVKFNWYVDGVEVHNAKTKPREEQYNSTYRVVSVLTVLHQDWLNGKEYKCKVSNKGLPSSIEKTISKAKGQPREPQVYTLPPCRDELTKNQVSLWCLVKGFYPSDIAVEWESNGQPENNYKTTPPVLDSDGSFFLYSKLTVDKSRWQQGNVFSCSVMHEALHNHYTQKSLSLSPGKGGSGAKLAALKAKLAALKGGGGSFLNSLFNQEVQIPLTESYCGPCPKNWICYKNNCYQFFDESKNWYESQASCMSQNASLLKVYSKEDQDLLKLVKSYHWMGLVHIPTNGSWQWEDGSILSPNLLTIIEMQKGDCALYASSFKGYIENCSTPNTYICMQRTV chain 2: QAVVTQEPSLTVSPGGTVTLTCRSSTGAVTTSNYANWVQQKPDHLFRGLIGGTNKRAPGTPARFSGSLLGDKAALTISGAQPEDEAEYYCALWYSNLWVFGGGTKLTVLKRTVAAPSVFIFPPSDEQLKSGTASVVCLLNNFYPREAKVQWKVDNALQSGNSQESVTEQDSKDSTYSLSSTLTLSKADYEKHKVYACEVTHQGLSSPVTKSFNRGECDKTHTCPPCPAPPVAGPSVFLFPPKPKDTLMISRTPEVTCVVVDVSHEDPEVKFNWYVDGVEVHNAKTKPREEQYNSTYRVVSVLTVLHQDWLNGKEYKCKVSNKGLPSSIEKTISKAKGQPREPQVCTLPPSRDELTKNQVSLSCAVKGFYPSDIAVEWESNGQPENNYKTTPPVLDSDGSFFLVSKLTVDKSRWQQGNVFSCSVMHEALHNHYTQKSLSLSPGKGGSGAKLAALKAKLAALKGGGGSFLNSLFNQEVQIPLTESYCGPCPKNWICYKNNCYQFFDESKNWYESQASCMSQNASLLKVYSKEDQDLLKLVKSYHWMGLVHIPTNGSWQWEDGSILSPNLLTIIEMQKGDCALYASSFKGYIENCSTPNTYICMQRTV,1090,676,–,–,–
"IgFD-8 (bispecific antibody, human IgG1, kappa) chain 1: EVQLVESGGGLVQPGGSLRLSCAASGFTFNTYAMNWVRQAPGKGLEWVARIRSKYNNYATYYADSVKDRFTISRDDSKNTLYLQMNSLRAEDTAVYYCVRHGNFGNSYVSWFAYWGQGTLVTVSSASTKGPSVFPLAPSSKSTSGGTAALGCLVKDYFPEPVTVSWNSGALTSGVHTFPAVLQSSGLYSLSSVVTVPSSSLGTQTYICNVNHKPSNTKVDKKVEPKSCDKTHTCPPCPAPPVAGPSVFLFPPKPKDTLMISRTPEVTCVVVDVSHEDPEVKFNWYVDGVEVHNAKTKPREEQYNSTYRVVSVLTVLHQDWLNGKEYKCKVSNKGLPSSIEKTISKAKGQPREPQVYTLPPSRDELTKNQVSLTCLVKGFYPSDIAVEWESNGQPENNYKTTPPVLDSDGSFFLYSKLTVDKSRWQQGNVFSCSVMHEALHNHYTQKSLSLSPGK chain 2: QAVVTQEPSLTVSPGGTVTLTCRSSTGAVTTSNYANWVQQKPDHLFRGLIGGTNKRAPGTPARFSGSLLGDKAALTISGAQPEDEAEYYCALWYSNLWVFGGGTKLTVLKRTVAAPSVFIFPPSDEQLKSGTASVVCLLNNFYPREAKVQWKVDNALQSGNSQESVTEQDSKDSTYSLSSTLTLSKADYEKHKVYACEVTHQGLSSPVTKSFNRGECDKTHTCPPCPAPPVAGPSVFLFPPKPKDTLMISRTPEVTCVVVDVSHEDPEVKFNWYVDGVEVHNAKTKPREEQYNSTYRVVSVLTVLHQDWLNGKEYKCKVSNKGLPSSIEKTISKAKGQPREPQVYTLPPSRDELTKNQVSLTCLVKGFYPSDIAVEWESNGQPENNYKTTPPVLDSDGSFFLYSKLTVDKSRWQQGNVFSCSVMHEALHNHYTQKSLSLSPGKGGSGGSGGGGSGGGGSDIQMTQSPSSLSASVGDRVTITCQASQDISNYLNWYQQKPGKAPKLLIYDASNLETGVPSRFSGSGSGTDFTFTISSLQPEDIATYFCQHFDHLPLAFGGGTKVEIKGGGGSGGGGSGGGGSQVQLQESGPGLVKPSETLSLTCTVSGGSVSSGDYYWTWIRQSPGKGLEWIGHIYYSGNTNYNPSLKSRLTISIDTSKTQFSLKLSSVTAADTAIYYCVRDRVTGAFDIWGQGTMVTVSS",–,–,3.12,3.74,766
